{"source": "the DeepSol protein solubility set", "data": [{"experiment": "soluble on expression in E. coli; label from the status in PepcDB or PDB records", "values": [{"sequence": "MGHHHHHHGGHMSLDMKLQQVQVLKPQLTQELRQAITLLGYHSAELAEYIDELSLENPLIERKETDTPPLSYHKTNKNRMNAQEAGLQLSNPQKTLQDALKQQSLDMNLTNTEKKIFNYLIHSLDSNGYLEEDIEEAARRLSVSAKEAEAVLAKLQSLEPAGIGARSLQECILLQLQRLPNRNEQAEMLVSAHFDAFAQKKWKTLSVETGIPLHTIQDISDDIAALHPRPGLLFARPEQDVYIEPDIFITVKNGHIAAELNTRSFPEIDLHPQYRTLLSSGSCQDTVSYLSAKYQEWRWLSRALRQRKQTITRIINELITRQKDFFLKGRSAMKPLTLREVADCLSLHESTVSRAIKGKTIQTPYGLFEMKLFFSAKAEASGDGDASNYAVKTHLENLINQEDKTKPLSDQKLVDLLYEQHGIQISRRTVAKYRDQMNIPSSAARKRYKEGGS", "soluble on expression in E. coli": "soluble"}, {"sequence": "MGSDKIHHHHHHMTFEEFKDRLFALAKKNGVEVQISFLETREFSLRLANGDLDQYTDAGKFNVEIKVLKDGKTGTFRTQVLENPEKCFEEALSNLQVKDSEEKEYFFEGGKEYREMETYVGRFEKLSVKEKMDMAKKAHESAAKDERVVMVPTVMYKDMVIKKIITNTLGLDVESQMDGGFLFAMAIARDANPRSGSWYELARTPEDLNPEEIGKRAAEEAISLIGSKTIPSGKYPVLMRNTALLDLMEMFIPMISAENVQKNLSPLKGKLGEQVGNPAVSIKDLPYHPKGLSSTPFDDEGVPTTEKFVLENGVLKTFLHNLKTARKEGVEPTGNGFVGGIRPVNLMLMPGEKSFEELLKEMDRGVVITEVEGMHAGANSISGEFSLFAKGYWVENGEIAHGVEDITISGNFLDLLRKIVLVGNDVKVSQHTIAPSVLVEVLDVAGK", "soluble on expression in E. coli": "soluble"}, {"sequence": "MLSEQLLAQQHLPEKLKKNIPGLYFHGRVGRGKTMLMDLFYQHLAIKNKKRIHFHHFMESVHQQLAQLTGQSEPLSHIAAKWAQNIDLLCFDEFYVSDIGDAMLLSGLFSALFKQGVTLVATSNCQPEQLYRNGLQRERFLPTIALINQHCQIVSINGDVDHRRTKLSKNSCYNNYFLLANEGNEKLIERFQSLTDAEMLVSGEIEINHRQLCYLAQSANVIFFDFFALCSGPRSQRDYMVLAKDFDTVCIANVPKFSGELVPAVFSGVEDSYQRSGVLMGELQQLDDEARRFIALVDEFYDQNVKLIVSAQVDIFELYQGQQLAFEFERCQSRLIEMQQSLEHHHHHH", "soluble on expression in E. coli": "not soluble"}, {"sequence": "MIRITQIKISIDEPVSKVKSLVLKKLRLQESDLLDYRIYKESIDARHRGEIDFIYTVDIKLKDEARILSKKIKNVSLAPELDYVNPVIGSKKMLHRPVVIGFGPAGMFAALLLAQNGYRPIVLERGQAVDERVKSIDKFWLEGKLNPKSNVQFGEGGAGTFSDGKLTSRVRDLRGRKVLEEFVQAGAPEDILYKAHPHVGTDLLRDIVKNIRKQIIELGGEVHFDAQVEEFLIEDEELQAVKLADGNIIKTNQAILAIGHSARDTFSELYDKGVTITAKPFAVGVRIEHPQSLINKAQYKEFADHPRLGAAEYRLTYKASSGRGVYTFCMCPGGLVVPAASEEGGLVTNGMSEHARDQKNANSGLLVQVFPEDFPTDHPLAGVEFQKELEHKAFELGGSNYQAPAQLVGDFLDGKASKAMGTVEPSYALGVKPTNLESLFPDYVTQSMREAIVGLDKKMHGFALSDAVMTGVESRSSSPVRINRDEENYQSVSTKGIYPSGEGAGFAGGIVSAGIDGLKCAESMIAEFAKLLMEDLEHHHHHH", "soluble on expression in E. coli": "soluble"}, {"sequence": "MGSDKIHHHHHHAQFKIGGKKINVGKVVQAGSDAAKAITLSDSDIAAMSKEYMQWMDTHNPLTAADSEYGKRLEKLTGHIKEVDGLKVNFGVYEVVDVNAFACGDGSVRICAGLMDIMTDDEVMAVVGHEIGHVIHTDSKDAMKSAYLRSAVKNAAGAASSTVSKLTDSELGAMAEALAGAQYSQKQESEADDYGFEFSIKHNIDPYAMYNALNKLLELSAEAPKESKFQKMFSSHPDTAKRVARAKEKADNYTKNK", "soluble on expression in E. coli": "not soluble"}, {"sequence": "ENLGATVIPASTGNTEKHVRLIRDLGITGIACTPSYALYLAEVVERMGLTKNDINLRIGAFGAEPWTESMRKEIEERLGLKGYNIYGLSEIMGPGVSYECQEQH", "soluble on expression in E. coli": "not soluble"}, {"sequence": "MAHHHHHHMGTLEAQTQGPGSMLTYFHPDQSLHHPRTYFSRGRMRMPQEVPERAARLVAAAFAMGFPVREPDDFGIAPIAAVHDTHYLRFLETVHREWKAMPEDWGDEAMSNIFVREPNALRGVLAQAARHLADGSCPVGEHTWRAAYWSAQSALAAAAAVRDGAPAAYALCRPPGHHARVDAAGGFCYLNNAAIAAQALRARHARVAVLDTDMHHGQGIQEIFYARRDVLYVSIHGDPTNFYPAVAGFDDERGAGEGLGYNVNLPMPHGSSEAAFFERVDDALRELRRFAPDALVLSLGFDVYRDDPQSQVAVTTDGFGRLGHLIGALRLPTVIVQEGGYHIESLEANARSFFGGFGALRG", "soluble on expression in E. coli": "soluble"}, {"sequence": "MVEKHLLEFLEKLQFLISKNVKISHYGIENVKKICGVDIAYKGNLGFSVGVSMDINSGDYNYKSYVGEVNFPYIPGFLFMREAPLMIKAIEGLDCHLLLVDGHGIAHPRKSGIAAVIGVLLDFPTIGVAKSRLTGDLVNESEITYVYLNGEKVGVKFGRYFYSPGNKVDLQDCIELGKRGYPKVLKIADMLTKKIKKE", "soluble on expression in E. coli": "soluble"}, {"sequence": "MSLNQGEQLPGNYRVEIYLNGEKVDVGEFPFHRPESPEEKELVPCLTVDDLIHYGIKIDKSSSDTDNKKNQCFKWNSIEGLKVNYDFDSQRVQITVPQLYLQDKKSSLAPVSLWNEGVAAFRMVYQTNIDISKQNDNQSTTRNSRYGRFTPGFNLGAWRFRSSVTWSKELGQSERWQRGYMWFERGINAIKSRLTLGESYTSSEVFDSIPFRGGMLATDDAMTPPEDSYYTPVVHGIAQSEAQVIIKQNGQIIFTRSVPPGPFALDNLPTLAVGGELDVTVRESNGEEQYFSVPFQTPAIALHEGYFKYSVMGGNIKKKEGHHHHHH", "soluble on expression in E. coli": "not soluble"}, {"sequence": "MALREMIIDESDDIESYSDQSLCLDKAKELLALIKLPTGLLPLKDMTEVGYNKTKGFVWMRMRSKIEHTFREIGRRVLYDTEITAFVEDRRMRRLTGVKSKELMIWVPVNDIFIKRKILRRSPLLIPPACHEHLKFQHFNVRVDKLKEKRSNQTSLM", "soluble on expression in E. coli": "not soluble"}, {"sequence": "MLSKSKRSCRRRETLRIGEKMSAPITNLQAAQRDAIMNRPAVNGFPHLAETLRRAGVRTNTWWLPAMQSLYETDYGPVLDQGVPLIDGVAEVPAFDRTALVTALRADQAGQTSFREFAAAAWRAGVLRYVVDLENRTCTYFGLHDQTYMEHYAAVEPSGGAPTS", "soluble on expression in E. coli": "not soluble"}, {"sequence": "MLFFSSAMSKHKLTFTKLSDCMKYLDLAATWAEEEWGYIRNKGLEFRKKILSDLKEHTYIGTFNGQPIAMFVLFDKEMSPEFNHGRFKPPVVNELMYVYIDKPYRGLGFGKQIIDEAKQLASDSKSEYIMLDTLKPGLNRFYEKSGAKVIAENQLFSHPTDVLTIKI", "soluble on expression in E. coli": "not soluble"}, {"sequence": "MEFKDFPLKPEILEALHGRGLTTPTPIQAAALPLALEGKDLIGQARTGTGKTLAFALPIAERLAPSQERGRKPRALVLTPTRELALQVASELTAVAPHLKVVAVYGGTGYGKQKEALLRGADAVVATPGRALDYLRQGVLDLSRVEVAVLDEADEMLSMGFEEEVEALLSATPPSRQTLLFSATLPSWAKRLAERYMKNPVLINVIK", "soluble on expression in E. coli": "soluble"}, {"sequence": "TFDIDLQQYGEKLLQNKIGCVVAIEPQTGEILAFISSPTYDPNLLTGRKYSANYKELEKDPYKPLFNRPLMAMYPPGSIFKLAQAAVALQEGVITDKSRFPCDKTLVNCHNHPSPQDLRGAIQWSCNPYFYMVYKKMISQDKNPNKFKDTEINFDEWRHNMLTLGFGQKMLVDLPSSKSGNIPSNAYYDKIYGDLHWKFSTIYSLSIGQGEINVVPIQMANLAALIANKGWYITPHFIKSIGKDGHILEEYKNKHVTSVEPKYFEPIIDGMEQVVLGGTAYWLKIKDIDICGKTGTAENPHGDDHSVYIAFAPKKEPKIAIAVYVENAGFGAMTAAPIAHLMIEKYLKDTITRKPLEDMILNKNLLHKVKVKP", "soluble on expression in E. coli": "not soluble"}, {"sequence": "MILQRLFRFSSVIRSAVSVHLRRNIGVTAVAFNKELDPIQKLFVDKIREYKSKRQTSGGPVDASSEYQQELERELFKLKQMFGNADMNTFPTFKFEDPKFEVIEKPQALEHHHHHH", "soluble on expression in E. coli": "not soluble"}, {"sequence": "AGVFNLEGFGPVSRAMGGTGAAFDIGPAAMMENPATLGLMGEGRHFSLGLDVVSTDIKVTNTATGETASSGNHGNNNGPYFAPQTAFVYRQGRYAFGAGIFAEGGLGTQYGGSSFLSRTSNGVDTGLDQFSRLLVLRVPFSAAYHVTDKLTVGASVDAVWTSLNLGTLLDVSQIGTLAGQGRVSGTLVPTLLGVPGLSGGYIDFSRNAPVGGGVQAWGIGGRLGLTYQVTPDTRIGAAYQAKTHVGDLTGQATLSAVSSVAGNIPLKGDVTVRNFQMPAQLTVGISHQFNDQLSVSADYQRVFWSSVMKDMNVGFVQSGSAANLDLSLPQNYRDISVFGIGAEYRYNAKWTFRGGFHYAQEAIPGNMLLAVVPATPTTSLTGGVSYAIGKNDVIDFALSVALRKTLDNASQPNTAVPISVTHSQVNAVIAYQKRFHHHHHH", "soluble on expression in E. coli": "soluble"}, {"sequence": "MGSDKIHHHHHHMHVSLDTMVDTLKAAAESSRLRILALLSRGDLTVSDLTEILGQSQPRVSRHLKLLLEAGLIDRYQEGSWAFFRLSDADSARDFVMGLVSSIRGADPQVERDLERLASVKRKRQDRAAEYFSVNAASWDHIRSLHVPDRAVEAAMLKLVGKRPFQSMLDLGTGTGRLLEIFSPLYRRGVGIDMSREMLTVARANLDKAGVSNAQVRQGDIFSPPVERDAFDLVTIHQVLHYLDDPARAIHEAARLLRPSGRLVIVDFAPHTLEFLREEHAHMRLGFSDRQIGEWFAEAGLDLEDAQEFEPRGGSEPRLTVKLWLGRDRRLLIADPANDSQQTKVNSIGEIA", "soluble on expression in E. coli": "not soluble"}, {"sequence": "SLFPHISPCEVRVLMLLYSSKKKIFMGLIPYDQSGFVSAIRQVITTRKQAVGPGGVNSGPVQIVNNKFLAWSGVMEWQEPRPEPNSRSKRWLPSHVYVNQGEILRTEQWPRKLYMQLIPQQLLTTLVPLFRNSRLVQFHFTKDLETLKSLCRIMDNGFAGCVHFSYKASCEIRVLMLLYSSEKKIFIGLIPHDQGNFVNGIRRVIANQQQVLQRNLEQEQQQRGMGG", "soluble on expression in E. coli": "soluble"}, {"sequence": "MGSDKIHHHHHHMKETDNLLRENSHDRDISEIVATITALDHPSPSLLRFTAFVPGSANNPVWAEANVAIRLYLSEEFDDATRVYTVRSFDAATESIVVDVVQHHHESPMMRWSDTVKINDTLVLTGPRPHFVIPEGEQAALFLDDTAIPALAAILDQWPTDLRGKGWVVTDDPAAFDELPSIDGLELNLLAPGSDPTVQPLAQQAYDLENPETYVVWAAGERDEIKSIRRHFRKQVGLEKDAVAVFGYWKYNTTNTQIDAVRKENYMKMLSEGLQLENFDDLSLEI", "soluble on expression in E. coli": "not soluble"}, {"sequence": "MSLTSQPREQFLLISALGPNPMELTTLLCRACVESRCAVVSSRLTRHGEFSALVLQISGSWDALARLEGSLPALTKRGDITLSMTRSNAHVTRAQALPYVAYVSAVYRPDILNELCQFFIDHNIELENLTCDTYQAPHTNTTMLNATITVTLPAGTQISWLRDQFLDFADALNLDALIEPWREGGSHHHHHH", "soluble on expression in E. coli": "soluble"}, {"sequence": "MSSLTLTDKVSKMIHQDILSGKLKPGQKLVVAELKERYNVGASPIREALVQLSWNKYVKLEPQKGCWVASISLSELKELFESLRTIGQVLLAKAITNGNENWELNVLTSFHKLNKINLQDAKIEELREWENRYTDFHNSLLEGAQSPIMYQFYQDISHQITRYRHLNNNPQVISETYAQYLEEHEIMMKLTLSRDSEQAIKYLNNHYSKASDLISTYFSA", "soluble on expression in E. coli": "not soluble"}]}]}
